Measurements: patent US20240254246A1 (PROMETHEUS BIOSCIENCES, published 2024)
Positions count from the first letter of the chain named. Each block holds one binder with its values, some of them ahead of it.

Key:
[1] = molecular target: T1, human CD30L expressed on cells (human, UniProt P32971 1-234); test: flow cytometry, HuCD30L cells
T1 construct: also called huCD30L; B16-huCD30L
T1 sequence: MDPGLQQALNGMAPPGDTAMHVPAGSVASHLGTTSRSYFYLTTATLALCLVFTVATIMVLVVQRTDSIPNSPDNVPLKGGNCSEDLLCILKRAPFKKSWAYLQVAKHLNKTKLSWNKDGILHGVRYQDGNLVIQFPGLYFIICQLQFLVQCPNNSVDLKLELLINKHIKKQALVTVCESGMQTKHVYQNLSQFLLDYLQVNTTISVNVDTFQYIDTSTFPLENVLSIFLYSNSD

[2] = molecular target: T2, recombinant human CD30L protein (human, UniProt P32971 63-234); test: ELISA, HuCD30L
T2 construct: also called rhCD30L; huCD30L (ELISA)
T2 sequence (looked up): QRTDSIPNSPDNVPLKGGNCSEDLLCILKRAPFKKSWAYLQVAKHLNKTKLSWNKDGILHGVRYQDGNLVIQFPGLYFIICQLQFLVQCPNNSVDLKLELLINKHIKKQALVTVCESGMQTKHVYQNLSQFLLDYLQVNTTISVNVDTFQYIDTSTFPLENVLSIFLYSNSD

recombinant human CD30L [3] = molecular target: T3, recombinant human CD30L (human, UniProt P32971 63-234); test: ELISA, blocking of CD30-Fc on huCD30L; competitor CD30-Fc
T3 construct: Purified recombinant protein of ELISA, BLI, Carterra and KinExA; also called rhCD30L; huCD30L
T3 sequence (looked up): T2 sequence (looked up)

[4] = molecular target: T4, human CD30L expressed on B16 cells (human, UniProt P32971 1-234); test: flow cytometry, binding to B16-rhCD30L cells
T4 construct: whole, on cells; B16 cell line transfected to express human CD30L; also called B16-huCD30L; B16-rhCD30L
T4 sequence (looked up): T1 sequence

recombinant human CD30L [5] = molecular target: T3, recombinant human CD30L; test: ELISA, binding to purified rhCD30L
[6] = molecular target: T5, cynomolgus CD30L expressed on HEK293 cells (cynomolgus, UniProt A0A7N9CVX7 1-234); test: cell-based or functional assay
T5 sequence: T1 sequence with A19T, M20T, G32E, L41F, V75I, K78R, I204V, I227V

[7] = molecular target: T4, human CD30L expressed on B16 cells; test: cell-based or functional assay
[8] = molecular target: T5, cynomolgus CD30L expressed on HEK293 …; test: flow cytometry, binding to HEK293-cyCD30L cells
[9] = molecular target: T6, recombinant cynomolgus CD30L (cynomolgus, UniProt A0A7N9CVX7 63-234); test: ELISA, blocking of CD30-Fc on rcyCD30L; competitor CD30-Fc
T6 construct: Purified recombinant protein; also called rcyCD30L; cyno CD30L
T6 sequence: T2 sequence (looked up) with V13I, K16R, I142V, I165V

[10] = molecular target: T5, cynomolgus CD30L expressed on HEK293 …; test: flow cytometry, blocking of CD30-Fc on HEK293-cyCD30L cells; competitor CD30-Fc
[11] = molecular target: T6, recombinant cynomolgus CD30L; test: ELISA, binding to purified rcyCD30L
[12] = molecular target: T4, human CD30L expressed on B16 cells; test: flow cytometry, blocking of CD30-Fc on B16-huCD30L cells; competitor CD30-Fc
recombinant human CD30L [13] = molecular target: T3, recombinant human CD30L; test: BLI, CD30 association to CD30L held by captured IgG; competitor rhCD30
Description: Briefly, individual anti-human biosensors were loaded with purified IgG (normalized to 10 μg/mL) and a baseline was measured for each biosensor. Biosensors were saturated with biotin and with polyclonal hulgG and a baseline was measured. Loaded biosensors were then allowed to bind CD30L and the association rate was measured for the binding. Biosensors were moved to buffer wells to measure the dissociation rate.

[14] = molecular target: T4, human CD30L expressed on B16 cells; test: flow cytometry, binding to B16 cells expressing human CD30L (MFI)
[15] = molecular target: T4, human CD30L expressed on B16 cells; test: flow cytometry on B16 cells expressing hCD30L
[16] = molecular target: T6, recombinant cynomolgus CD30L; test: ELISA on recombinant protein
recombinant human CD30L [17] = molecular target: T3, recombinant human CD30L; test: ELISA on recombinant protein
recombinant mouse CD30L = molecular target: T7, recombinant mouse CD30L (mouse, UniProt P32972 68-239); test: ELISA on recombinant protein
T7 construct: Purified recombinant protein; also called rmCD30L
T7 sequence (looked up): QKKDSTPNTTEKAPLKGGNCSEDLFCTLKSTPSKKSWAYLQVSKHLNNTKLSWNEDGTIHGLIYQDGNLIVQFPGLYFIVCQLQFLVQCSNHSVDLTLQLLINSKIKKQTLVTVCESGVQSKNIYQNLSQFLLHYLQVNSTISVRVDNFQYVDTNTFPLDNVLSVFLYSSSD

recombinant human CD30L [18] = molecular target: T3, recombinant human CD30L; test: recombinant blocking ELISA; competitor CD30
recombinant human CD30L [19] = molecular target: T3, recombinant human CD30L; test: ELISA, binding to rhCD30L (OD 450 nm)
CDH13 = molecular target: T8, CDH13 (human, UniProt P55290 139-693); test: cell microarray, library and confirmation screens
T8 construct: whole, on cells; also called hit #16
T8 sequence (looked up): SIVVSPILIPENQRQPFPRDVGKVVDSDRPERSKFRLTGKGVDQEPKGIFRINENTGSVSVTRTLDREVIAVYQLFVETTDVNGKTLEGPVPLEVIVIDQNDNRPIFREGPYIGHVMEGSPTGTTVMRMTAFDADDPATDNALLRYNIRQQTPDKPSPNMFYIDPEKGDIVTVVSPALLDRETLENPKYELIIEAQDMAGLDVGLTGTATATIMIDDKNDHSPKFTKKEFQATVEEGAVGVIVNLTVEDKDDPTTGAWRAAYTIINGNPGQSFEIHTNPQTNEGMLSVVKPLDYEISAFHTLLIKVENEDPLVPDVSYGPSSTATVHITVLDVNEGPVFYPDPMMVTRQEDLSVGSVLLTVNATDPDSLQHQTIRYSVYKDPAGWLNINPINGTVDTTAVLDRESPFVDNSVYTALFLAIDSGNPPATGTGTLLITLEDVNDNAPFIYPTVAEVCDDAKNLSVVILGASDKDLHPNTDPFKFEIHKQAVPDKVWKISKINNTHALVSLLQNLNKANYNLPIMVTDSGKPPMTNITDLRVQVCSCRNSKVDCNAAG

MFI [1]: 9790 MFI
OD [2]: 0.06 OD
B1: anti-CD30L clone 59 (antibody, V domains shown)
VH: QVQLVESGGGVVQPGRSLRLSCAASGFTFSIYGMHWVRQAPGKGLEWVAVIWYDGSNKYYVDSVKGRFTISRDNSKNSLYLQMNSLRAEDTAVYYCAREGNLFDYWGQGTLVTVSS
VL: DIQMTQSPSTLSASVGDRVTITCRASQSISSWLAWYQQKPGKAPKLLIYKASSLESGVPSRFSGSGSGTEFTLTISSLKPDDFATYYCQQYKSYYTFGQGTKLEIK

IC50 (recombinant human CD30L [3]): 1.35 nM
EC50 [4]: 0.74 nM
EC50 (recombinant human CD30L [5]): 0.04 nM
Inhibition of IL-8 release in a dual cell assay (HEK293-cyCD30L cells + K299 cells) IC50 [6]: 0.31 nM
Inhibition of IL-8 release in a dual cell assay (B16-huCD30L cells + K299 cells) IC50 [7]: 0.81 nM
EC50 [8]: 0.3 nM
IC50 [9]: 1.28 nM
IC50 [10]: 0.34 nM
EC50 [11]: 0.05 nM
IC50 [12]: 0.79 nM
B2: anti-CD30L antibody clone 2 (antibody, V domains shown)
VH: EVQLVESGGGLVQPGRSLRLSCAASGFNFDDYAMHWVRQAPGKGLEWVSGISWRSGNIGYAGSVKGRFTISRDNAKNSLYLQMNSLRPEDSALYYCAKDKGIGFNWNYEGFDYWGQGTLVTVSS
VL: DIQMTQSPSSLSASVGDRVTITCRASQGISNHLAWFQQKPGKAPKSLIYAASSLQSGVPSKFSGSGSGTDFTLTISSLQPEDFATYYCQQYVTYPLTFGGGTKVEIK
notes: also called clone 2 parental

rhCD30L:rhCD30 Blocking (recombinant human CD30L [13]): 0.0592
EC50 (read off the curve) [14]: ~1 nM
hCD30L B16 (+) FLOW [15]: 6.07e+06
rcyCD30L (+) ELISA [16]: 0.724
rhCD30L (+) ELISA (recombinant human CD30L [17]): 1.87
rmCD30L (+) ELISA (recombinant mouse CD30L): 0.046
IC50 (recombinant human CD30L [18]): 3.18 nM
EC50 (read off the curve) (recombinant human CD30L [19]): ~0.1 nM
B3: anti-CD30L antibody clone 63 (antibody, V domains shown)
VH: EVQLVESGGGLVQPGGSLRLSCAASGFMFSSYSMNWVRQAPGKGLEWVSYISSSSSTIYDADSVKGRFTISRDDAKNSLYLQMNSLRDEDTAVYYCTREAYPGYYYNYMDVWGKGTTVTVSS
VL: DIQMTQSPSSLSASVGDRVTITCRASQSISSRLAWYQQKPGKAPNLLIYKASNLESGVPSRFSGSGSGTEFTLTISSLQPDDFATYYCQQYNSYSRTFGQGTKVEIK
notes: purified recombinant IgG (held by anti-human biosensors); mouse strain #1

rhCD30L:rhCD30 Blocking (recombinant human CD30L [13]): 0.0633
EC50 (read off the curve) [14]: ~1 nM
hCD30L B16 (+) FLOW [15]: 5.67e+06
rcyCD30L (+) ELISA [16]: 0.951
rhCD30L (+) ELISA (recombinant human CD30L [17]): 2.04
rmCD30L (+) ELISA (recombinant mouse CD30L): 0.049
IC50 (recombinant human CD30L [18]): 3.17 nM
EC50 (read off the curve) (recombinant human CD30L [19]): ~0.1 nM
B4: anti-CD30L antibody clone 64 (antibody, V domains shown)
VH: EVQLVESGGGLVQPGGSLRLSCAASGFTFSNYAMTWVRQAPGKGLEWVSAISGFGGSTYYADSVKGRFTISRDNSKNTLYLQMNSLRAEDTAVYYCAKDHDYYAFDYWGQGTLVTVSS
VL: not shown
notes: as for B3

rhCD30L:rhCD30 Blocking (recombinant human CD30L [13]): 0.0522
EC50 (read off the curve) [14]: ~1 nM
hCD30L B16 (+) FLOW [15]: 6.91e+06
rcyCD30L (+) ELISA [16]: 1.38
rhCD30L (+) ELISA (recombinant human CD30L [17]): 1.97
rmCD30L (+) ELISA (recombinant mouse CD30L): 0.047
IC50 (recombinant human CD30L [18]): 3.66 nM
EC50 (read off the curve) (recombinant human CD30L [19]): ~0.1 nM
B5: anti-CD30L antibody clone 65 (antibody, V domains shown)
VH: B4 VH with R19K, F54Y, D62A, Y80F, T115P
VL: not shown
notes: as for B3

IC50 (recombinant human CD30L [3]): 2.14 nM
EC50 [4]: 1.11 nM
EC50 (recombinant human CD30L [5]): 0.05 nM
Inhibition of IL-8 release in a dual cell assay (HEK293-cyCD30L cells + K299 cells) IC50 [6]: 0.39 nM
Inhibition of IL-8 release in a dual cell assay (B16-huCD30L cells + K299 cells) IC50 [7]: 1.43 nM
EC50 [8]: 0.67 nM
IC50 [9]: 1.58 nM
IC50 [10]: 0.51 nM
EC50 [11]: 0.07 nM
IC50 [12]: 1.06 nM
B6: anti-CD30L antibody clone 1 (antibody, V domains shown)
VH: QVQLQESGPGLVKPSETLSLTCTVSGGSISGYYWSWIRQPPVKGLEWIGYIFYSGYTKYNPSLKSRVTISVDTSKNQFSLKLSSVTAADTAVYYCARDRWDFDYWGQGALVTVSS
VL: AIQMTQSPSYLSASVGDRVTIACRASQGIRNNLGWYQQKPGKAPKLLIYAESSLQSGVPSRFSGSGSGTDFTLTISSLQPEDFATYYCLQDFNYPYTFGQGTKLEIK
notes: also called clone 1 parental

binding result (CDH13): no binding (tested: 5 µg/mL)
B7: anti-CD30L antibody clone 1 with IgG1 constant region SEQ ID NO: 502 (antibody, V domains shown)
VH: B6 VH
VL: B6 VL
notes: copies: 2 + 2

binding result (CDH13): no binding (tested: 5 µg/mL)
B8: anti-CD30L antibody clone 1 germlined with IgG1 constant region SEQ ID NO: 502 (antibody, V domains shown)
VH: B6 VH with V42G, A109T
VL: B6 VL with Y10S, A22T
notes: copies: 2 + 2

MFI [1]: 1090 MFI
OD [2]: 0.23 OD
B9: anti-CD30L clone 60 (antibody, V domains shown)
VH: QVHLVESGGGVVQPGRSLRLSCAASGFAFNIYGMHWVRQAPGKGLEWVAVISYDGSNKVYADSVKGRFSISRDNSKNTLYLQMNSLRAEDTAVYYCAKSGGITMVRGVFDYWGQGTLVTVSS
VL: DIQMTQSPSSLPASVGDRVTITCRASQGIRNDLGWYQQKPGKAPKRLIHAASSLHSGVPSRFSGSGSGTEFTLTISSLQPEDFATYYCLQHNRYPITFGQGTRLEIK

MFI [1]: 362 MFI
OD [2]: 1.42 OD
B10: anti-CD30L clone 61 (antibody, V domains shown)
VH: QITLKESGPTLVKPTQTLTLTCTFSGFSLSTSGVGVGWIRQPPGKALEWLALIYWNDDKRYSPSLKSRLTITKDTSKNQVVLTMTNMDPVDTATYYCAHRRTTTVTIYYYYMDVWGKGTTVTVSS
VL: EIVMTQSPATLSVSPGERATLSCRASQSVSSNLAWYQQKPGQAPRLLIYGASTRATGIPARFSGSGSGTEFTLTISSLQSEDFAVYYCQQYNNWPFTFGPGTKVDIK
